From US20120288506A1 (Eli Lilly, published 2012) come the findings set out here.

Assay [1] has as its target T1, cynomolgus c-Kit (cyno-c-Kit; Met1-His549 prepared recombinantly) (cynomolgus).
T1 construct: The printed range starts at Met1, so it includes the signal peptide of the expressed construct; also called cynomologus c-Kit; cynomolgus c-Kit (1.0 ug/ml)
As to the kind of experiment: ELISA, plate coated with cyno-c-Kit 1 ug/ml. Here is the method: (§1) The species binding specificity of anti-human c-Kit mAbs can be determined by measuring the reactivity of the antibodies to human, cynomolgus, and mouse c-Kit proteins in an ELISA. […] Following washes, wells are blocked with 3% PBS/milk. Serial dilutions of human anti-human-c-Kit mAbs are then added to the c-Kit-coated wells and allowed to incubate for two hours at room temperature. Following several washes, a 1:1000 dilution of anti-human IgG-HRP conjugated antibody is added to the plates for one hour at room temperature in order to detect bound human antibody. Plates are washed and HRP substrate is added to each well and incubated until blue color is developed. Stop solution is added and absorbance is measured at 450 nm.
On the technique in general: ELISA stands for enzyme-linked immunosorbent assay.

Assay [2] addresses T2, recombinant human c-Kit (rh-c-Kit) protein (R&D Systems) (human, UniProt P10721 26-520, limits assumed).
T2 construct: also called human c-Kit protein; human c-Kit (1.0 ug/ml)
Briefly: ELISA, plate coated with rh-c-Kit 1 ug/ml, anti-human IgG-HRP detection. Here is the method:
Following washes, wells are blocked with 3% PBS/milk. […] Plates are washed and HRP substrate is added to each well and incubated until blue color is developed. Stop solution is added and absorbance is measured at 450 nm.

Assay [3] has as its target T2, recombinant human c-Kit (rh-c-Kit) …. As to the kind of experiment: SPR (BIAcore), rh-c-kit immobilized on CM5 chip, 25 C.
Assay [4] addresses plasma membrane bound human c-Kit expressed by human tumor cells (Mo7e; also Malm-3M) (human, UniProt P10721 26-976). Briefly: cell-based or functional assay.
The target in assay [5] is T3, plasma membrane bound mouse (p815) c-Kit expressed by mouse tumor cells (p815) (mouse, UniProt P05532 25-979).
T3 construct: whole, on cells; also called c-Kit on P815 cells
T3 sequence (P05532 25-979): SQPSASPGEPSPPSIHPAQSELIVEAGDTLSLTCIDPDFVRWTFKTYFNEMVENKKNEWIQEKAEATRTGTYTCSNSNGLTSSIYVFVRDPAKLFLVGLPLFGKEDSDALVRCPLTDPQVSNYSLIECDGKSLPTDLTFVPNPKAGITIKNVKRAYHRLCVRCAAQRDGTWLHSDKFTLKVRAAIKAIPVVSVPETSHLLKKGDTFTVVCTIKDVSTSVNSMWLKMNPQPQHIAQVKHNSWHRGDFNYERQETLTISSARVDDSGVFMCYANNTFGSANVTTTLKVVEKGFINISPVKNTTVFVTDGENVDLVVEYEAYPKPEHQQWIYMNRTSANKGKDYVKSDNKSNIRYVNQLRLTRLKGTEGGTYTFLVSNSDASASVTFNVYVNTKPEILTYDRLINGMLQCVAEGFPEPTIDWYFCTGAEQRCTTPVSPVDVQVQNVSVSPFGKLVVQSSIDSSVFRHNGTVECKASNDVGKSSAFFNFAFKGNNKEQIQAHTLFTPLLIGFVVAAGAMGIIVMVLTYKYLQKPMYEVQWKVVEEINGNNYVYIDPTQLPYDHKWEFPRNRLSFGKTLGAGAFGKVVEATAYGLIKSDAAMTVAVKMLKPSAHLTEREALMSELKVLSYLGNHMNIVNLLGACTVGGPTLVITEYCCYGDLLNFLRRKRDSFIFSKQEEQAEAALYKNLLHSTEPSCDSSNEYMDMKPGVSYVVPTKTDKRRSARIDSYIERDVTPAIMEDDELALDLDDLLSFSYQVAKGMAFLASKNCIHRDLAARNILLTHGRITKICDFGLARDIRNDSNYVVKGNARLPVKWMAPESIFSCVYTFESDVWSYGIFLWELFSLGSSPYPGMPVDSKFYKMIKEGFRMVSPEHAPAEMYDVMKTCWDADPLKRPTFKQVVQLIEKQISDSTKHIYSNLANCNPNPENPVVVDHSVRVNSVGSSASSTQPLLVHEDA
Briefly: flow cytometry on whole live P815 cells. The method, then:
Species specificity of c-Kit mAbs can be further tested for their binding to plasma membrane bound c-Kit expressed on the surface of human Mo7e and mouse P815 cells based on the flow cytometry analysis (see, e.g., WO2004/007735). Briefly, whole, live human Mo7e and mouse P815 cells are serum starved overnight, washed 3 times in cold blocking buffer (5% FBS in PBS), and then resuspended in 100 μl of blocking buffer. An anti-c-Kit antibody is added at 1.0 μg/ml and the mixture is incubated for 30 minutes at 4° C. A secondary fluorescence-conjugated antibody (Jackson ImmunoResearch) is added at 1.0 μg/ml to detect human antibody bound to the cell surface via flow cytometry analysis.
For orientation: A flow cytometer gives signals particle by particle.

In assay [6] the target is T2, recombinant human c-Kit (rh-c-Kit) …. As to the kind of experiment: blocking ELISA: CK6 pre-incubated with rh-c-Kit, added to SCF-coated wells. Here is the method: Purified mAbs can be also tested for their ability to block the binding of c-Kit and its ligand. […] Following washes, wells are blocked with 3% PBS/milk. […] Following several washes (3-5), a 1:1000 dilution of anti-human IgG-HRP conjugated antibody is added to the plates for one hour at room temperature. Plates are washed in 0.2% Tween-PBS and HRP substrate is added to each well and incubated until blue color is developed. Stop solution is added and absorbance is measured at 450 nm.

For assay [7], the target named is T4, recombinant mouse c-Kit (rm-c-Kit; Gln26-Thr519) (R&D Systems) (mouse, UniProt P05532 26-519).
T4 construct: also called mouse c-Kit (1.0 ug/ml)
T4 sequence (looked up): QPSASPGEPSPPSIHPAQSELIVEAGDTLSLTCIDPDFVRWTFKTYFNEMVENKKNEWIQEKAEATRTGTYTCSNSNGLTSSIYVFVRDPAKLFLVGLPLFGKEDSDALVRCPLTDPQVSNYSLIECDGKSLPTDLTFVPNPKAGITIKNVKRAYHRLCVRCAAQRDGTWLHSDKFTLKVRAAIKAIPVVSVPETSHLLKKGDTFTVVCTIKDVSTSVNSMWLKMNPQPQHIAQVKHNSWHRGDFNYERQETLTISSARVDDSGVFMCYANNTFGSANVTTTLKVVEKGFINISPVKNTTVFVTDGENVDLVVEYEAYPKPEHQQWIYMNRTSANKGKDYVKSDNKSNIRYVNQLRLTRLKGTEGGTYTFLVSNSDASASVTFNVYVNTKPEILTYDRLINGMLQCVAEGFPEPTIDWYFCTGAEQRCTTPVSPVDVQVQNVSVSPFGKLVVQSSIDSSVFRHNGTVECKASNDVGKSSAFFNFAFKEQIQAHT
Briefly: ELISA, plate coated with rm-c-Kit 1 ug/ml. The method, then: as §1

T2 sequence (P10721 26-520 limits assumed): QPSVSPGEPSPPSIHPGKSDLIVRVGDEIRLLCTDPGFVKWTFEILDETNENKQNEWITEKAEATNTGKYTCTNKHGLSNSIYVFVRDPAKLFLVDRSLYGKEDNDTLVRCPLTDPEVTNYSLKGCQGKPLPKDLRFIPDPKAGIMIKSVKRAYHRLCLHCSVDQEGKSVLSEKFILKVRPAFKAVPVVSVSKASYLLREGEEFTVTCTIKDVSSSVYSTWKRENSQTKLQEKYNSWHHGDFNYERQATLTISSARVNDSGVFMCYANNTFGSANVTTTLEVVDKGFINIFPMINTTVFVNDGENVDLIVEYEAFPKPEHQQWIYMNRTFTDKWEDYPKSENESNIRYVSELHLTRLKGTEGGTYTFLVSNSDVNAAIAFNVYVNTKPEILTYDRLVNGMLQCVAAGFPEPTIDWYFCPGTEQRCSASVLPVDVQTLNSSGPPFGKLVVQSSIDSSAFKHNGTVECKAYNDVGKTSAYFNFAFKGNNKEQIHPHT
plasma membrane bound human c-Kit expressed by human tumor cells (Mo7e; also Malm-3M), sequence (P10721 26-976): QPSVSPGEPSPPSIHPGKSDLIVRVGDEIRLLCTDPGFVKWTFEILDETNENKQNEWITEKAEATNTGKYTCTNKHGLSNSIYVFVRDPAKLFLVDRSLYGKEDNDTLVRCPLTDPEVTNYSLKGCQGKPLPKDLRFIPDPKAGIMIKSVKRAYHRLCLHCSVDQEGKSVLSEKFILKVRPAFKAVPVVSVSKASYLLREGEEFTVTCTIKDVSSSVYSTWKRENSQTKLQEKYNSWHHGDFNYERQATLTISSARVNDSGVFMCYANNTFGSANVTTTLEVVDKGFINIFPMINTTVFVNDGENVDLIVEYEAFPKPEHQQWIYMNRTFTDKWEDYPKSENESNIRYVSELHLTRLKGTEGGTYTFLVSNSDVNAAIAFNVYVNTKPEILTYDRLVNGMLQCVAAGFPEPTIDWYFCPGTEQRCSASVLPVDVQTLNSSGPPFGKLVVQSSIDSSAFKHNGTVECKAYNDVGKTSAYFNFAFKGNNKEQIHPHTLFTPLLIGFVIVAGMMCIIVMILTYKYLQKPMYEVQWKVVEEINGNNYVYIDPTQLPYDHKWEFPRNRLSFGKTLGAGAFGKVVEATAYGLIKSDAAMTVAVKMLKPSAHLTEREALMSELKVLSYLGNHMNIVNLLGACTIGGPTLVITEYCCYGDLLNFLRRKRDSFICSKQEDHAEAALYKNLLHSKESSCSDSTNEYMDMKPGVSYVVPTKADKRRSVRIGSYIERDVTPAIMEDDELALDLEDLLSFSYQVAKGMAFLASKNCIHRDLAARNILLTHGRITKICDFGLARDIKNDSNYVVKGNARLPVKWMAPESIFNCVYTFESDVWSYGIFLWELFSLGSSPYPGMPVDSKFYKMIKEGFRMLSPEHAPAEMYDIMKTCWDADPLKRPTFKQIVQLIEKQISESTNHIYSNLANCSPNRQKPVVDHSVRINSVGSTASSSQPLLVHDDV

B1: anti-human c-Kit monoclonal antibody CK6 (antibody, human IgG1, kappa, V domains shown)
VH: QVQLVQSGAAVKKPGESLKISCKGSGYRFTSYWIGWVRQMPGKGLEWMGIIYPGDSDTRYSPSFQGQVTISAGKSISTAYLQWSSLKASDTAMYYCARHGRGYNGYEGAFDIWGQGTMVTVSS
VL: AIQLTQSPSSLSASVGDRVTITCRASQGISSALAWYQQKPGKAPKLLIYDASSLESGVPSRFSGSGSGTDFTLTISSLQPEDFATYYCQQFNSYPLTFGGGTKVEIKR
notes: also called mAb CK6; anti-c-Kit mAb CK6
Consider B1, for which the values for the EC50 in assay [1] and in assay [2] were 0.057 nM and roughly 0.03 nM, respectively. Besides, in assay [3], the dissociation constant (Kd) was determined as 0.066 nM. Moreover, in assay [4], the “IC50 of inhibition of c-Kit and MAPK phosphorylation in response to SCF in Mo7e ('Mole') leukemia cells, western blot” value turned out to be 0.3 nM. In addition, the binding result in assay [5] is “no binding (tested: 1.0 µg/ml)”; in assay [7], “no binding”. Moreover, in assay [6], the IC50 was roughly 0.04 nM.

The EC50 is the concentration that produces a half-maximal response. Usually Kd stands for the free concentration of one partner at which half of the binding sites on the other are occupied at equilibrium, for simple one-to-one binding. As usually defined, the IC50 is the midpoint of a concentration-inhibition curve.
